In the DeepSol protein solubility set:

Experiment: soluble on expression in E. coli; label from the status in PepcDB or PDB records

| Sequence | soluble on expression in E. coli |
| --- | --- |
| MSDTLLLTVLLRHDQSKNLDEIQARMKAMDWWERFPGEGVEIVSWTVAMGLGQIVTLRLPPALLPRVNVELERSAWGVFRTECYPTYDFVPVRETIRERVRTGGQ | not soluble |
| MSDTSYKLGITKTFPCNYLPDQQERLLIAVDERLHNSESYGWLMTQGFRRSGDQSYRPSCPNCNACQSIRVLTSDFLPSKSQKRSKKRNSHFIIKQSSQLKDSYYPLFENYINTLHQDGSMYPASFQQFESFLSCNLTQQLFIETWAPANEENGPKEDKLVCVAVTDVLSNGLSAVYTFYHPDYKANGLGVFSILTQLSLSQQMSLPYLYLGYQIDECQKMNYKDRYFPFERFIDGQWLINTKPSVNKAKIAKLEHHHHHH | not soluble |
| MSDVAVAADTTETPAAPTKASKATKASKATKASKATKAKTTKVPMVKADAAHPPFINMVTEAISSIKDRKGPSRAAILKYITTKYTLGDQANKINAHLRKALNKGLESNAFVQASGNGANGRFRLAEKTASVAKSPAAAKKDATGEKKATTTVAKKAATGEKKATTTVAKKAATGEKKATTTVAKKAAAGDKAKKTEVKVKKVKSPKKIAKSPVNKVTKSPVKKIAKSSSMKAAPKKAAAKPAKKAPAAAPEA | soluble |
| MSDVMADRTPPHNIEAEQAVLGAILIDQDALTSASELLVPDSFYRTKHQKIFEVMLGLSDKGEPIDLVMMTSAMADQGLLEEVGGVSYLAELAEVVPTAANVEYYARIIAEKALLRRLIRTATHIVSDGYEREDDVDGLLNEAEKKILEVSHQTNAKAFQNIKDVLVDAYDKIELLHNQKGEVTGIPTGFTELDKMTAGFQRNDLIIVAARPSVGKTAFSLNIAQNVATKTDENVAIFSLEMGADQLVMRMLCAEGNIDAQRLRTGSLTSDDWAKLTMAMGSLSNAGIYIDDTPGIKVNEIRAKCRRLKQEQGLGMILIDYLQLIQGSGKSGENRQQEVSEISRTLKGIARELQVPVIALSQLSRGVESRQDKRPMMSDIRESGSIEQDADIVAFLYREDYYDRETENKNTIEIIIAKQRNGPVGSVELAFVKEFNKFVNLERRFEDGHAPPA | not soluble |
| MSEAAIAKKETLVQAAAEKFESAASVVIVDYRGLTVEEVTNLRKQLRDAGVEMKVIKNSILSRAAKKVGLDGLDEVFTGPTAVAFSNDDVVAPAKIIDEFAKDAKALEIKGGVIEGKVSSVEQITALAKLPNREGLLSMLLSVLQAPVRNVAYAVKAVAEKNEEVA | not soluble |
| MSEDRSSNGQKSWLGKLTQAFVHEPKNRQELLELLREAHQNKLLDSEALAIVEGAIQVADLQVRDIMVPRSQMISIKATQTPREFLPAVIDAAHSRYPVIGESHDDVLGVLLAKDLLPLILKADGDSDDVKKLLRPATFVPESKRLNVLLREFRANHNHMAIVIDEYGGVAGLVTIEDVLEQIVGDIEDEHDVEEDSYIKPLPSGDFLVKALTPVENFNEFFDSAFSDDEFDTVGGLVMNAFGHLPKRNEITEIGAYRFRILSADSRRIHLLRVTPISRP | not soluble |
| MSEDYADLHDPNAEYTMRELSAETMGADSGRPAPRDLEITDIQTTMVDGNFPWTLVRVYTDAGVVGTGEAYWGAGVPELIERMTPFVVGENPLDIDRLFEHLVQKMSGEGSVEGVTVTAISGIEVALHDLAGKVLGVPAYQLLGGKYRDEVRVYCDCHTAAEADPEACADEAERVVDDLGYDALKFDLDVPSGLEKDRANRHLRPGEIRHKADIVAAVTERVRDRADVAFDCHWTFSGGSAKRLAAELEAYDVWWLEDPVPPENLDVQASVTESTATPIAVGENRYRVTEARRLIENQAVDIVAPDLPKVGGMRETRKIADVANQYYVPVAMHNVASPVATMASAHVGAAIPNALAVEYHSYELGWWSDLVAEDVIEDGSIEVPERPGLGITLDMDAVEEHMVDGETLFDEA | soluble |
| MSEEAEAGPSPKVNGENGNGTNTFDDLYVDDKMRRMIVDLQRQWLTDYHDSREKSLVALTEKLHQEFMEDQERVRRDLLVQFKIELDQTKEELEKKHAENLKEEIEKLSEKHQRELAVAKKKQWCWQCNSEAIYHCCWNTAYCSVECQQGHWQIHRKFCRRKKSNGGAPGPVQPIAEPTQSQQ | soluble |
| MSEEKKDSSRPPVRNYLKQIDDFFEQTPLRNVIADLNHFFQKGNRLLTFPVDLYEVGEELVVTAELPGIQKEQIQIEIQSEYLKVSVKEEILEEEEQTSHNYYRRERSISEASRLIKLPYSINKKAAKASYQNGVLEIRAPKLPQQHDILSID | not soluble |
| MSEESNDDKKPTTKFELERETELRFEVEASQSVQLELLAGMAEIFGTELTRNKKFTFDAGAKVAVFTWHGCSLQLSGRTEVAYVSKDTPMLLYLNTHTALEQMRRQAEKEEERGPRVMVVGPTDVGKSTVCRLLLNYAVRLGRRPTYVELDVGQGSVSIPGTMGALYIERPADVEEGFSIQAPLVYHFGSTTPGTNIKLYNKITSRLADVFNQRCEVNRRASVSGCVINTCGWVKGYGYQALVHAASAFEVDVVVVLDQERLYNELKRDLPHFVRTVLLPKSGGVVERSKDFRRECRDERIREYFYGFRGCFYPHAFNVKFSDVKIYKVGAPTIPDSCLPLGMSQEDNQLKLVPVTPGRDMVHHLLSVSTAEGTEENLSETSVAGFIVVTSVDVEHQVFTVLSPAPRPLPKNFLLIMDIRFMDLK | soluble |
| MSEEWEPKIVGFCCNWCTYGGADTAGVGRMQYPPSIRIIRVMCSGRIEPSFILKAFKEGADGVFIGGCHLGDCHYDAGNYKWQRRVMMLYDMLDELGIGRERVLHEWISASEGEKFQTKMNEIYDRIKALGPCTLNENLK | not soluble |
| MSEISIKRAHENEKDAEEDMEPATKKIKSDDVTEEQEKPEIVEKAEKVKSMKKEEAGSLKSPPNDEMESEFTHVLNELSKQKETIKKLLDDLRADNKKRKTHNIRTIFQRKD | not soluble |
| MSEKQSNEQVEAFLNKESQWQEEYKYLRALIFNETELEEAYKWMHPCYTLNNKNVVLIHGFKNYVALLFHKGAILEDKYHTLIQQTEKVQAARQLRFENLTEIQARTEEIKYYLAEAIKAEKAGKKVEMKKTEEYVIPKELEAKFEEMPQLESSFYKLTPGRQHQYIYHIGQAKRSETKQKRVEKYINQILEGKGMHDK | not soluble |
| MSEKWIPEIMTPLKQDIVKMPEIIRQASGIKIFGRKIKSIIFTTDIAIIRNTDAQAVIAVYPFTPHPAITKGIIEAADIPVFSGVGGGLTQGMRSAYMSLFAEAQGSMGVVLNGPTPIETIKMVDEAIDIPIISTVTSIHTPIDEKLAAGVDMINISAGKDTAATVRYFRGKYPELPIIATGGPTESSIHETIIAGANAITYTPPSNGELFSKKMKKYREQEKATDEE | soluble |
| MSELFSNDNIFLNVNVNSQNEAIEKAGKALVDSGAVTDAYIQAMKDREQVVSTFMGNGLAIPHGTDEAKTNVIHSGLTLLQIPEGVDWDGEVVKVVVGIAGKDGEHLDLLSKIAITFSEEENVDRIVQAKSAEEIKQVFEEADA | not soluble |
| MSELILHHYPTSLFAEKARLMLGFKGVNWRSVTIPSIMPKPDLTALTGGYRKTPVLQIGADIYCDTALMARRLEQEKASPAFYPQGQEFAVAGLAAWADSVLFLHAVSLVFQPESMAVRFAKVPPDAAKAFIADRSMLFNGGTASRPPVEQVKHQWPTFMSRLESQLSHGGDFLFGAPSIADFSVAHTLWFLKQTPVTAPFVDDYPSVSVWLDRVLGFGHGSLSDLSSAAAIEIASNATPAPLPDETFIDPNGFKAGDKVAIAAVDYGVEAVEGELMFTGREELILRREDNRAGVVHVHFPRLGFRVEKR | soluble |
| MSENENSQEKNELLDALNSVEEVNVGDVVKGEVLAIDDDKQVIVGIQGTGVEGVVPLKELSTQRVDDVNEAAKVGDVLDLVVISRIGSDKENGSYLLSHRRLEARKVWDDVEKEYEAGHTIKAPVTQVVKGGLVVDAGVRGFIPASMIDDHYVEDLNAYKGQELELKIIEIEPSENRLILSHRAVVEKQREAQREEALKTLQAGDVVEGKVARLTNFGAFVDLGGIDGLVHVSEISYERVEKPADVLKVGQEVTVKILSVDADRERVSLSIKATLPEPWDGIEEKAPQGAVLDGKVKRLTSFGAFVEVFPGVEGLVHISQISHQHIATPNDVLKVGQEIKVKVLDVRPDEKRLALSIKALEEKPQTADDDNESQPERRSNNNRRRNNNRDNRTASERSTANAPEESTGFTLGDLIGDELKNAESNNDENLEHHHHHH | not soluble |
